Source: PMC11892609

B1: WT mTMIE-HA-Avi [mouse] / Fyn-mTMC2-mCherry [mouse] (parent)
chain 1: QLVEPSTAPPKPKPPPLTKETVVFWDMRLWHVVGIFSLFVLSIIITLCCVFNCRVPRTRKEIEARYLQRKAAKMYTDKLETVPPLNELTEIPGEDKKKKKKDSVDTVAIKVEEDEKNEAKKKGEK
chain 2: MSPQLKSLDEEGDKSARRPTRKQTSRAACPQDGHRAQSSRKDPAKGSPRPGSSRKKQMEHGSYHKGLQGQKPRKVERSLQGRKKDRRTSLKEQRASPKKEREALRKEAGKQLRKPRSTSLGSSVSTGDSLSEEELAQILEQVEEKKKLITTVRNKPWPMAKKLRELREAQAFVEKYEGALGKGKGKHLYAYRMMMAKKWVKFKRDFDNFKTQCIPWEMKIKDIESHFGSSVASYFIFLRWMYGVNLVLFGLIFGLVIIPEVLMGMPYGSIPRKTVPRAEEERAMDFSVLWDFEGYIKYSALFYGYYNNQRTIGWLRYRLPMAYFMVGVSVFGYSLMIVIRSMASNTQGSTSEGDSDSFTFSFKMFTSWDYLIGNSETADNKYVSITTSFKESIVDEQESNKEGNIHLTRFLRVLANFLILCCLCGSGYLIYFVVKRSQEFSKMQNVSWYERNEVEIVMSLLGMFCPPLFETIAALENYHPRTGLKWQLGRIFALFLGNLYTFLLALMDDVHLKLSNEEKIKNITHWTLFNYYNSSGGNESVPRPPPHPADVPRGSCWETAVGIEFMRLTVSDMLVTYLTILVGDFLRACFVRFMNHCWCWDLEAGFPSYAEFDISGNVLGLIFNQGMIWMGSFYAPGLVGINVLRLLTSMYFQCWAVMSSNVPHERVFKASRSNNFYMGLLLLVLFLSLLPVAYTVMSLPPSFDCGPFSGKNRMYDVLHETIENDFPKFLGKIFAFLANPGLIIPAILLMFLAIYYLNSVSKSLSRANAQLRKKIQALREVEKNHKSIKGKAIVTYSEDTIKNSSKNATQIHLTKEEPTSHSSSQIQTLDKKAQGPHTSSTEGGASPSTSWHHVGSQPPRGRRDSGQPQSQTYTGRSPSGKRTQRPHN

Variants of: B1
Assay: pull-down with NeutrAvidin beads, western blot quantification
Settings: PK-HEK293T cells co-expressing Fyn-mTMC2-mCherry and mTMIE-HA-Avi, three experiments, parent: 1, read off a plot

ratio to parent	Variant
1.7	chain 1 C48S C49S
